US20190276796A1

T1: CD70 (on CD70+ 786-O target cells) (UniProt P32970)
T1 sequence (looked up): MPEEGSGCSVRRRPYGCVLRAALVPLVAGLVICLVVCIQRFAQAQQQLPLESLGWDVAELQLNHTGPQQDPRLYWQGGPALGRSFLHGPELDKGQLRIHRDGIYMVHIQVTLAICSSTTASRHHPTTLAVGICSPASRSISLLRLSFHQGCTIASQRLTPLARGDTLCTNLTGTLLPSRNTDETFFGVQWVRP


target: T1, CD70 (on CD70+ 786-O target cells); test: cell-based or functional assay

| half maximal lysis (EC50), ADCC 51Cr release assay [ng/mL] | maximal specific lysis [percent] | Binder |
| --- | --- | --- |
| 9 | 42.5 | control h1F6 antibody (humanized IgG1 anti-CD70 monoclonal antibody, from CHO DG44 cells cultured without fucose analog; core fucosylated) (antibody, INN chains, looked up, V domains shown) VH: QVQLVQSGAEVKKPGASVKVSCKASGYTFTNYGMNWVRQAPGQGLKWMGWINTYTGEPTYADAFKGRVTMTRDTSISTAYMELSRLRSDDTAVYYCARDYGDYGMDYWGQGTTVTVSS VL: DIVMTQSPDSLAVSLGERATINCRASKSVSTSGYSFMHWYQQKPGQPPKLLIYLASNLESGVPDRFSGSGSGTDFTLTISSLQAEDVAVYYCQHSREVPWTFGQGTKVEIK |
| 0.5 | 53.3 | h1F6 antibody from host cells cultured in the presence of 50 µM alkynyl fucose peracetate (non-core fucosylated anti-CD70 antibody) (antibody, INN chains, looked up, V domains shown, non-core fucosylated (alkynyl fucose)) VH: QVQLVQSGAEVKKPGASVKVSCKASGYTFTNYGMNWVRQAPGQGLKWMGWINTYTGEPTYADAFKGRVTMTRDTSISTAYMELSRLRSDDTAVYYCARDYGDYGMDYWGQGTTVTVSS VL: DIVMTQSPDSLAVSLGERATINCRASKSVSTSGYSFMHWYQQKPGQPPKLLIYLASNLESGVPDRFSGSGSGTDFTLTISSLQAEDVAVYYCQHSREVPWTFGQGTKVEIK |
| 0.3 | 54.8 | h1F6 antibody from host cells cultured in the presence of 100 µM alkynyl fucose peracetate (antibody, INN chains, looked up, IgG1, V domains shown, produced with 100 µM alkynyl fucose) VH: QVQLVQSGAEVKKPGASVKVSCKASGYTFTNYGMNWVRQAPGQGLKWMGWINTYTGEPTYADAFKGRVTMTRDTSISTAYMELSRLRSDDTAVYYCARDYGDYGMDYWGQGTTVTVSS VL: DIVMTQSPDSLAVSLGERATINCRASKSVSTSGYSFMHWYQQKPGQPPKLLIYLASNLESGVPDRFSGSGSGTDFTLTISSLQAEDVAVYYCQHSREVPWTFGQGTKVEIK |
